Assay [1] deals with T1, Rat serum albumin (rat, UniProt P02770 25-608).
T1 construct: bought; immobilised on a CM5 chip by amine coupling; also called Rat SA
Kind of assay: SPR, SA on chip, VHH 300 nM, 25 C.
Description: (§1) Immobilization of SA to a Series S Sensor Chip CM5 surface is performed according to the manufacturer's instructions (amine coupling kit BR-1000-50). […] Human SA is obtained from Sigma Aldrich (St. Louis, MO; Cat. No. A8763). […] Mouse SA is obtained from Sigma Aldrich (Cat. No. A3559). Rat SA is obtained from Sigma Aldrich (Cat. No. A4538). Pig SA is obtained from Sigma Aldrich (Cat. No. A4414). […] Cow SA is obtained from Sigma Aldrich (Cat. No. A7030). The various SAs are covalently immobilized through free amines onto a carboxymethyl dextran-coated sensor chip CM5 targeting a surface density of average approximately 77 (58-98) RU. Excess reactive groups on the surfaces (flow cell 1 and 2) are deactivated by injecting 70 μL of 1 M ethanolamine hydrochloride-NaOH, pH 8.5, at 10 μL/min.
(§2) VHH moieties are diluted in HBS-EP+buffer (10 mM HEPES, pH 7.6, 150 mM NaCl, 3 mM EDTA, and 0.05% Polysorbate 20) at concentrations of 300 nM. 150 μL of sample is individually injected sequentially across the immobilized SAs surface and is dissociated for 600 sec at a flow rate of 50 L/min at 25 C. […] The resulting sensorgrams are analyzed using Biacore 8K Insight Evaluation Software (version 2.0.15.12933) to calculate the dissociation rate (kd).

A further assay concerns the target T2, Human serum albumin (human, UniProt P02768 25-609).
T2 construct: bought; immobilised on a CM5 chip by amine coupling; also called Human SA
The assay is described as follows: SPR, SA on chip, VHH 300 nM, 25 C.

In assay [2] the target is T3, Dog serum albumin (dog, UniProt P49822 25-608).
T3 construct: bought; immobilised on a CM5 chip by amine coupling; also called Dog SA
The assay is described as follows: SPR, SA on chip, VHH 300 nM, 25 C.
Description: as §1, §2

For assay [3], the target named is T4, Cow serum albumin (cow, UniProt P02769 25-607).
T4 construct: bought; immobilised on a CM5 chip by amine coupling; also called Cow SA
The assay is described as follows: SPR, SA on chip, VHH 300 nM, 25 C.
Description: as §1, §2

Assay [4] has as its target T5, Cynomolgus monkey serum albumin (cynomolgus monkey, UniProt A2V9Z4 25-608).
T5 construct: bought; immobilised on a CM5 chip by amine coupling; also called Cyno SA
Kind of assay: SPR, SA on chip, VHH 300 nM, 25 C.
Description: as §1, §2

For assay [5], the target named is T6, Mouse serum albumin (mouse, UniProt P07724 25-608).
T6 construct: bought; immobilised on a CM5 chip by amine coupling; also called Mouse SA
The assay is described as follows: SPR, SA on chip, VHH 300 nM, 25 C.
Description: as §1, §2

Assay [6] deals with T7, Pig serum albumin (pig, UniProt P08835 25-607).
T7 construct: bought; immobilised on a CM5 chip by amine coupling; also called Pig SA
Kind of assay: SPR, SA on chip, VHH 300 nM, 25 C.
Description: as §1, §2

For assay [7], the target named is T1, Rat serum albumin. Kind of assay: SPR, SA on chip, 25 C.
Assay [8] concerns the target T3, Dog serum albumin. Kind of assay: SPR, SA on chip, 25 C.
Assay [9] concerns the target T5, Cynomolgus monkey serum albumin. The assay is described as follows: SPR, SA on chip, 25 C.
For assay [10], the target named is T6, Mouse serum albumin. The assay is described as follows: SPR, SA on chip, 25 C.
The target in assay [11] is T7, Pig serum albumin. The assay is described as follows: SPR, SA on chip, 25 C.
Assay [12] deals with T4, Cow serum albumin. Kind of assay: SPR, SA on chip, 25 C.

Description for Human serum albumin: as §1, §2

B1: VHH moiety 8 (MC6.1C22-G26Y) (VHH)
VHH: EVQLLESGGGLVQPGGSLRLSCAASYRYIDETAVAWFRQAPGKEREFVAGIGGGVDITYYADSVKGRFTISRDNSKNTLYLQMNSLRPEDTAVYYCAARPGRPLITSKVADLYPYWGQGTLVTVSS
Consider B1, for which the koff worked out at 0.0075 s⁻¹ with Rat serum albumin [1]; 0.001 s⁻¹ with Human serum albumin; 0.0022 s⁻¹ with Dog serum albumin [2]; 0.015 s⁻¹ with Cow serum albumin [3]; 0.003 s⁻¹ in assay [4]; 0.0032 s⁻¹ in the assay with Mouse serum albumin [5]. Besides, the koff in the assay with Pig serum albumin [6] was 0.0092 s⁻¹.

B2: VHH moiety 24 (MC6.1C22-L104G) (VHH)
VHH: EVQLLESGGGLVQPGGSLRLSCAASGRYIDETAVAWFRQAPGKEREFVAGIGGGVDITYYADSVKGRFTISRDNSKNTLYLQMNSLRPEDTAVYYCAARPGRPGITSKVADLYPYWGQGTLVTVSS
For B2, the binding result (in the assay with Rat serum albumin [7]; with Dog serum albumin [8]; in assay [9]; with Mouse serum albumin [10]; with Pig serum albumin [11]) was “no binding (tested: 300 nM)” in each case.

B3: VHH moiety 27 (MC6.1C22-S107E) (VHH)
VHH: EVQLLESGGGLVQPGGSLRLSCAASGRYIDETAVAWFRQAPGKEREFVAGIGGGVDITYYADSVKGRFTISRDNSKNTLYLQMNSLRPEDTAVYYCAARPGRPLITEKVADLYPYWGQGTLVTVSS
Take B3: the koff in the assay with Human serum albumin amounted to 0.014 s⁻¹. Also, the binding result (in the assay with Rat serum albumin [7]; with Dog serum albumin [8]; in the assay with Cow serum albumin [12]; in assay [9]; with Mouse serum albumin [10]; with Pig serum albumin [11]) was “no binding (tested: 300 nM)” each time.

B4: VHH moiety 14 (MC6.1C22-Y59Q) (VHH)
VHH: EVQLLESGGGLVQPGGSLRLSCAASGRYIDETAVAWFRQAPGKEREFVAGIGGGVDITQYADSVKGRFTISRDNSKNTLYLQMNSLRPEDTAVYYCAARPGRPLITSKVADLYPYWGQGTLVTVSS
With B4, the koff in the assay with Human serum albumin came out at 0.013 s⁻¹. The binding result (with Rat serum albumin [7]; with Dog serum albumin [8]; with Cow serum albumin [12]; in assay [9]; in the assay with Mouse serum albumin [10]; in the assay with Pig serum albumin [11]) was “no binding (tested: 300 nM)” in each case.

B5: VHH moiety 26 (MC6.1C22-L104T) (VHH)
VHH: EVQLLESGGGLVQPGGSLRLSCAASGRYIDETAVAWFRQAPGKEREFVAGIGGGVDITYYADSVKGRFTISRDNSKNTLYLQMNSLRPEDTAVYYCAARPGRPTITSKVADLYPYWGQGTLVTVSS
For B5, the binding result (with Rat serum albumin [7]; in the assay with Dog serum albumin [8]; with Cow serum albumin [12]; in assay [9]; with Mouse serum albumin [10]; with Pig serum albumin [11]) was “no binding (tested: 300 nM)” each time.

B6: VHH moiety 20 (MC6.1C22-P103) (VHH)
VHH: EVQLLESGGGLVQPGGSLRLSCAASGRYIDETAVAWFRQAPGKEREFVAGIGGGVDITYYADSVKGRFTISRDNSKNTLYLQMNSLRPEDTAVYYCAARPGRELITSKVADLYPYWGQGTLVTVSS
notes: name printed without the new residue
On to B6, for which the koff in the assay with Human serum albumin is 0.0092 s⁻¹. Besides, the binding result (with Rat serum albumin [7]; with Cow serum albumin [12]; in [9]; with Mouse serum albumin [10]; with Pig serum albumin [11]) was “no binding (tested: 300 nM)” each time.

B7: VHH moiety 17 (MC6.1C22-R102K) (VHH)
VHH: EVQLLESGGGLVQPGGSLRLSCAASGRYIDETAVAWFRQAPGKEREFVAGIGGGVDITYYADSVKGRFTISRDNSKNTLYLQMNSLRPEDTAVYYCAARPGKPLITSKVADLYPYWGQGTLVTVSS
For B7, the koff with Rat serum albumin [1] turned out to be 0.0081 s⁻¹; with Human serum albumin, 0.0015 s⁻¹; in the assay with Dog serum albumin [2] it was 0.0082 s⁻¹; with Cow serum albumin [3], 0.015 s⁻¹; in [4] it was 0.0022 s⁻¹; with Mouse serum albumin [5], 0.01 s⁻¹. In the assay with Pig serum albumin [6], this molecule showed a koff of 0.013 s⁻¹.

B8: VHH moiety 25 (MC6.1C22-L104Q) (VHH)
VHH: EVQLLESGGGLVQPGGSLRLSCAASGRYIDETAVAWFRQAPGKEREFVAGIGGGVDITYYADSVKGRFTISRDNSKNTLYLQMNSLRPEDTAVYYCAARPGRPQITSKVADLYPYWGQGTLVTVSS
Turning to B8, the binding result (with Cow serum albumin [12]; in assay [9]) was “no binding (tested: 300 nM)” in each case.

B9: VHH moiety 23 (MC6.1C22-L104E) (VHH)
VHH: EVQLLESGGGLVQPGGSLRLSCAASGRYIDETAVAWFRQAPGKEREFVAGIGGGVDITYYADSVKGRFTISRDNSKNTLYLQMNSLRPEDTAVYYCAARPGRPEITSKVADLYPYWGQGTLVTVSS
Consider B9, for which the binding result (with Rat serum albumin [7]; with Dog serum albumin [8]; in assay [9]; with Mouse serum albumin [10]; with Pig serum albumin [11]) was “no binding (tested: 300 nM)” in each case.

B10: VHH moiety 13 (MC6.1C22-Y59E) (VHH)
VHH: EVQLLESGGGLVQPGGSLRLSCAASGRYIDETAVAWFRQAPGKEREFVAGIGGGVDITEYADSVKGRFTISRDNSKNTLYLQMNSLRPEDTAVYYCAARPGRPLITSKVADLYPYWGQGTLVTVSS
Regarding B10, the binding result (with Rat serum albumin [7]; in the assay with Dog serum albumin [8]; with Cow serum albumin [12]; in [9]; with Mouse serum albumin [10]; with Pig serum albumin [11]) was “no binding (tested: 300 nM)” throughout.

The values are drawn from patent US20240316154A1 (Eli Lilly, published 2024).
